Publication PMC10148881, “Recognition of an Ala-rich C-degron by the E3 ligase Pirh2” (Nature Communications, 2023)
Positions count from the first letter of the chain named. Numbers in names are those of the source. Blank lines part the entries; values can stand above or below the binder they belong to.

Assays:
Pirh2 D94A (human) = Pirh2 D94A (human) (UniProt Q96PM5); assay: ITC; peptides (0.6–1.0 mM) titrated into the cell with 180–220 μM protein at 16 °C; 20 mM Tris-HCl pH 7.5, 150 mM NaCl, 10 μM Zn2+; one-site binding model
Pirh2 Q99A (human) = Pirh2 Q99A (human) (UniProt Q96PM5); assay: as above
Pirh2 R54A (human) = Pirh2 R54A (human) (UniProt Q96PM5); assay: as above
[1] = molecular target: Pirh2 with Ala159 substituted with aspartic acid (human) (UniProt Q96PM5); assay: as above
[2] = molecular target: Pirh2 with Ser155 substituted with aspartic acid (human) (UniProt Q96PM5); assay: as above
[3] = molecular target: T1, Ala6/C-degron peptide (sequence: …); assay: ITC; settings: chain shown with the change
T1 chain: YKTSAAAAAA

Binder: YKTSAAAAAA [Ala6/C-degron peptide (sequence: …)]
fold decrease in binding affinity against wild-type Pirh2 (Pirh2 D94A (human)): > 6 fold
fold decrease in binding affinity against wild-type Pirh2 (Pirh2 Q99A (human)): > 6 fold
fold decrease in binding affinity against wild-type Pirh2 (Pirh2 R54A (human)): > 6 fold
fold decrease in binding affinity against wild-type Pirh2 [1]: 14 fold
fold decrease in binding affinity against wild-type Pirh2 [2]: 9 fold

B3: WT Pirh2 R54A (protein)
chain: MAATAREDGASGQERGQRGCEHYDRGCLLKAPCCDKLYTCRLCHDNNEDHQLDAFKVKEVQCINCEKIQHAQQTCEECSTLFGEYYCDICHLFDKDKKQYHCENCGICRIGPKEDFFHCLKCNLCLAMNLQGRHKCIENVSRQNCPICLEDIHTSRVVAHVLPCGHLLHRTCYEEMLKEGYRCPLCMHS
Kd [3]: > 100 µM

B5: WT Pirh2 A159D (protein)
chain: B3 chain with A54R, A159D
Kd [3]: 7.1 µM

More lines, in order of falling Kd [3], values ahead:

Kd [3]: 4.5 µM
B1: WT Pirh2 S155D (protein)
chain: B3 chain with A54R, S155D

Kd [3]: 3.5 µM
B4: WT Pirh2 Q99A (protein)
chain: B3 chain with A54R, Q99A

Kd [3]: 3 µM
B2: WT Pirh2 D94A (protein)
chain: B3 chain with A54R, D94A
